Target: T1, biotinylated soluble human LDLR (sohLDLR) (human, UniProt P01130-1 22-788, biotin (biotinylated; site not stated))
T1 construct: also called biotinylated LDLR; soluble biotinylated LDLR; source: bought: SinoBiological #10231-H08H-B
Test: BLI
Settings: both partners purified

T1 sequence (P01130 22-788): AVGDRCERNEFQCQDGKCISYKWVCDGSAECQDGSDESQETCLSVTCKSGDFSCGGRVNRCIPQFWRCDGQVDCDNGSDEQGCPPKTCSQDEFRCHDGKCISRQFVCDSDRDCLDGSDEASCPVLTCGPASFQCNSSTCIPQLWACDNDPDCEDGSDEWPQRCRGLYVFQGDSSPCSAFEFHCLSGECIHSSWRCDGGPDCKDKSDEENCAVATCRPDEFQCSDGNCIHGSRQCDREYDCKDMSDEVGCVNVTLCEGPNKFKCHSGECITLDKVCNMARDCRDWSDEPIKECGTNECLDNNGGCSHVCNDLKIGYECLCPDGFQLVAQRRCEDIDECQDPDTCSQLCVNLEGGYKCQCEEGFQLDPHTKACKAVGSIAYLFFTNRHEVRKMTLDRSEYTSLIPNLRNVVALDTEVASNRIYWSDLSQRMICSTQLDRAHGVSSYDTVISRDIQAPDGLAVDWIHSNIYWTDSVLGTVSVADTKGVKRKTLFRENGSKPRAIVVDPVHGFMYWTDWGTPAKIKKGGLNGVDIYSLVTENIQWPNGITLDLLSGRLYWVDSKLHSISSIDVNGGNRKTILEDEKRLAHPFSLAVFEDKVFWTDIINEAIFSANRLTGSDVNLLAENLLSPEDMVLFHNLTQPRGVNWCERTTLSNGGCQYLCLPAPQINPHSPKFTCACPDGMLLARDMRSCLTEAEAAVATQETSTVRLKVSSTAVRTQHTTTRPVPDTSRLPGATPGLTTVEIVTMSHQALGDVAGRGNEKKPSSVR

B1: VSV G protein (Indiana strain) (natural protein)
chain: KFTIVFPHNQKGNWKNVPSNYHYCPSSSDLNWHNDLIGTAIQVKMPKSHKAIQADGWMCHASKWVTTCDFRWYGPKYITQSIRSFTPSVEQCKESIEQTKQGTWLNPGFPPQSCGYATVTDAEAVIVQVTPHHVLVDEYTGEWVDSQFINGKCSNYICPTVHNSTTWHSDYKVKGLCDSNLISMDITFFSEDGELSSLGKEGTGFRSNYFAYETGGKACKMQYCKHWGVRLPSGVWFEMADKDLFAAARFPECPEGSSISAPSQTSVDVSLIQDVERILDYSLCQETWSKIRAGLPISPVDLSYLAPKNPGTGPAFTIINGTLKYFETRYIRVDIAAPILSRMVGMISGTTTERELWDDWAPYEDVEIGPNGVLRTSSGYKFPLYMIGHGMLDSDLHLSSKAQVFEHPHIQDAASQLPDDESLFFGDTGLSKNPIELVEGWFSSWKSSIASFFFIIGLIIGLFLVLRVGIHLCIKLKHTKKRQIYTDIEMNRLGK
  Kd: 54.3 nM
